This is an account of results in the supplement of paper PMC7877785.

A short description of the data set: self-splicing fitness, log relative to wild type (ln ratio); higher = more splicing; Tetrahymena group I intron in knt gene, E. coli kanamycin selection, DiMSum; sequences stand for … in CUCUCU…GGAGGGAAAAGUUAUCAGGCAUGCACCUGGUAGCUAGUCUUUAAACCAAUAGAUUGCAUCGGUUUAAAAGGCAAGACCGUCAAAUUGCGGGAAAGGGGUCAACAGCCGUUCAGUACCAAGUCUCAGGGGAAACUUUGAGAUGGCCUUGCAAAGGGUAUGGUAAUAAGCUGACGGACAUGGUCCUAACCACGCAGCCAAGUCCUAAGUCAACAGAUCUUCUGUUGAUAUGGAUGCAGUUCACAGACUAAAUGUCGGUCGGGGAAGAUGUAUUCUUCUCAUAAGAUAUAGUCGGACCUCUCCUUAAUGGGAGCUAGCGGAUGAAGUGAUGCAACACUGGAGCCGCUGGGAACUAAUUUGUAUGCGAAAGUAUAUUGAUUAGUUUUGGAGUACUCGUGGUCG
In outline: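 Fitness was computed with DiMSum as the error-weighted combination of replicate fold changes, kanamycin versus none, each normalised to wild type. The library randomised all eight intron nucleotides of the P1ex region, with the intron placed in the knt kanamycin-resistance gene on pET-22b(+) in E. coli BL21(DE3). Six replicate transformations were grown overnight at 37°C or 30°C on LB agar with or without 25 μg/mL kanamycin, plus 100 μg/mL carbenicillin, 50 μM IPTG and 0.2% rhamnose. Pooled colonies were amplicon-sequenced on an Illumina HiSeq 2500.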

± gives the uncertainty stated by the source.

Consider CUAAAGCAAUAUUACGCACG, for which the “self-splicing fitness (ln)” value is -0.0346 ± 0.092 (30 °C) and 0.511 ± 0.14 (37 °C).
In the same order, the values of AGUGAGCAAUAUUACGUCGA are -3.92 ± 0.24 and -2 ± 0.16.
For the sequence UGCAAGCAAUAUUACGCGCA, the “self-splicing fitness (ln)” value runs as follows: (30 °C) -2.17 ± 0.23; (37 °C) -1.86 ± 0.29.
For the sequence AAAUAGCAAUAUUACGGUAC, the “self-splicing fitness (ln)” value is, setting by setting: (30 °C) -3.61 ± 0.25; (37 °C) -2.6 ± 0.3.
Regarding CGACAGCAAUAUUACGGAAU, the “self-splicing fitness (ln)” value (30 °C) was -2.5 ± 0.24 and the “self-splicing fitness (ln)” value (37 °C) is -2.54 ± 0.26.
Consider GCAUAGCAAUAUUACGACUU, for which the “self-splicing fitness (ln)” value was -0.481 ± 0.078 (30 °C) and -0.0367 ± 0.089 (37 °C).
Regarding CAUGAGCAAUAUUACGAUUU, the “self-splicing fitness (ln)” value was -2.51 ± 0.15 (30 °C) and -2.15 ± 0.2 (37 °C).
Turning to AGACAGCAAUAUUACGAGAU, the “self-splicing fitness (ln)” value by setting is: (30 °C) -2.88 ± 0.1; (37 °C) -2.85 ± 0.18.
As to UUAGAGCAAUAUUACGGCCA, the “self-splicing fitness (ln)” value runs as follows: (30 °C) -1.02 ± 0.34; (37 °C) 0.756 ± 0.35.
Consider UCAUAGCAAUAUUACGGUCG, for which the “self-splicing fitness (ln)” value (30 °C) was -1.14 ± 0.083 and the “self-splicing fitness (ln)” value (37 °C) was -0.0517 ± 0.1.
Take CAAAAGCAAUAUUACGCAGG: the “self-splicing fitness (ln)” value reads like this: (30 °C) -2.51 ± 0.1; (37 °C) -1.24 ± 0.087.
The corresponding values for ACGAAGCAAUAUUACGUGCU are -2.96 ± 0.12 and -1.84 ± 0.14.
Regarding AUUAAGCAAUAUUACGACUA, the “self-splicing fitness (ln)” value by setting is: (30 °C) -1.05 ± 0.12; (37 °C) -0.207 ± 0.15.
On to ACAAAGCAAUAUUACGUCUU, for which the “self-splicing fitness (ln)” value is -0.827 ± 0.051 (30 °C) and -0.41 ± 0.064 (37 °C).
For the sequence UACGAGCAAUAUUACGUUAU, the “self-splicing fitness (ln)” value is -3.45 ± 0.12 (30 °C) and -2.24 ± 0.099 (37 °C).
For the sequence GAUUAGCAAUAUUACGUCAU, the “self-splicing fitness (ln)” value (30 °C) is -2.76 ± 0.24 and the “self-splicing fitness (ln)” value (37 °C) is -1.79 ± 0.36.
In the case of UCUAAGCAAUAUUACGCAUC, the “self-splicing fitness (ln)” value reads like this: (30 °C) -2.99 ± 0.13; (37 °C) -3.33 ± 0.23.
Consider GGGUAGCAAUAUUACGUAUG, for which the “self-splicing fitness (ln)” value (37 °C) is -1.84 ± 0.19.
As for AGACAGCAAUAUUACGAAAG, the “self-splicing fitness (ln)” value is -2.18 ± 0.17 (30 °C) and -2.48 ± 0.21 (37 °C).
In the case of CGAAAGCAAUAUUACGGGUG, the “self-splicing fitness (ln)” value (30 °C) is 0.0165 ± 0.043 and the “self-splicing fitness (ln)” value (37 °C) worked out at 0.189 ± 0.063.
On to GGAGAGCAAUAUUACGAUGG, for which the “self-splicing fitness (ln)” value (30 °C) is -4.43 ± 0.46.
With GUGGAGCAAUAUUACGGAGC, the “self-splicing fitness (ln)” value reads like this: (30 °C) -2.43 ± 0.2; (37 °C) -0.177 ± 0.25.
As to GCAUAGCAAUAUUACGGCGU, the “self-splicing fitness (ln)” value reads like this: (30 °C) -0.347 ± 0.091; (37 °C) 0.0454 ± 0.089.
Regarding GCAUAGCAAUAUUACGAGAU, the “self-splicing fitness (ln)” value was -3.61 ± 0.46 (30 °C) and -2.13 ± 0.33 (37 °C).
The corresponding values for UGACAGCAAUAUUACGAGUC are -3.94 ± 0.23 and -3.33 ± 0.32.
With AGACAGCAAUAUUACGCACC, the “self-splicing fitness (ln)” value is, setting by setting: (30 °C) -0.553 ± 0.13; (37 °C) 0.279 ± 0.17.
UUCUAGCAAUAUUACGCUAU: the “self-splicing fitness (ln)” value is, setting by setting: (30 °C) -4.08 ± 0.29; (37 °C) -1.42 ± 0.15.
In the same order, the values of UCCCAGCAAUAUUACGCGGA are -2.72 ± 0.17 and -1.12 ± 0.12.
For CUAGAGCAAUAUUACGGGGA, the “self-splicing fitness (ln)” value is -2.35 ± 0.22 (30 °C) and -3.06 ± 0.47 (37 °C).
The corresponding values for UAAGAGCAAUAUUACGUAUU are -4.58 ± 0.34 and -2.02 ± 0.2.
Take UUCGAGCAAUAUUACGGGAA: the “self-splicing fitness (ln)” value runs as follows: (30 °C) -1.74 ± 0.16; (37 °C) -0.981 ± 0.15.
Regarding UUCAAGCAAUAUUACGGACC, the “self-splicing fitness (ln)” value is, setting by setting: (30 °C) -2.45 ± 0.25; (37 °C) -2.97 ± 0.21.
In the same order, the values of AUAAAGCAAUAUUACGGUCU are -0.245 ± 0.061 and 0.47 ± 0.088.
In the case of CGUCAGCAAUAUUACGACUG, the “self-splicing fitness (ln)” value runs as follows: (30 °C) -0.935 ± 0.11; (37 °C) 0.699 ± 0.13.
Take GCGUAGCAAUAUUACGCGAG: the “self-splicing fitness (ln)” value (37 °C) was -2.54 ± 0.27.
Take UGAAAGCAAUAUUACGGUCA: the “self-splicing fitness (ln)” value reads like this: (30 °C) -0.166 ± 0.077; (37 °C) 0.339 ± 0.1.
For CGUGAGCAAUAUUACGUAAA, the “self-splicing fitness (ln)” value (37 °C) is -2.03 ± 0.33.
Same read-out and setting: the figure for CUCGAGCAAUAUUACGUGGC is -0.934 ± 0.32.
On to AGCCAGCAAUAUUACGGACA, for which the “self-splicing fitness (ln)” value runs as follows: (30 °C) -0.814 ± 0.1; (37 °C) -0.491 ± 0.13.
On to CAUUAGCAAUAUUACGUGUC, for which, where the note is “37 °C”, the “self-splicing fitness (ln)” value is -2.18 ± 0.24.
